# US20220003777A1
# Biological target: C1 esterase inhibitor, human plasma-derived (human) (UniProt P05155)
# Test: Western blot of serially diluted C11NH/BSA probed with 20 µg/mL StcE E447D
# Chain of C1 esterase inhibitor, human plasma-derived (human) (P05155 23-500 limits assumed): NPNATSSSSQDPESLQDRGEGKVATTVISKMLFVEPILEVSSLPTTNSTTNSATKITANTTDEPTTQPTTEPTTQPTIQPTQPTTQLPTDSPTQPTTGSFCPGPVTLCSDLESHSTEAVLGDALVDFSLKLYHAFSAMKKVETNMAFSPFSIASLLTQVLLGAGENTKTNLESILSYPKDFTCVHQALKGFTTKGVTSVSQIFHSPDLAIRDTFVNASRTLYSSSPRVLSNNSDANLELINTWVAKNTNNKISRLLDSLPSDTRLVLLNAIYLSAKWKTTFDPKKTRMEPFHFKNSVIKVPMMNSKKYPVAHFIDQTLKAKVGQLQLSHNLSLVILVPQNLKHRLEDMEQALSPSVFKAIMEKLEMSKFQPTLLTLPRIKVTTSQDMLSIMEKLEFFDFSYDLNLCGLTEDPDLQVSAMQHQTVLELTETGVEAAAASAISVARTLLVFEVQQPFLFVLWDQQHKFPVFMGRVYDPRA
substance,measurement,value
"StcE E447D, catalytically inactive point mutant of StcE, N-terminal His-tagged (from UniProt O82882 36-898) (enzyme; other documents disagree on this pair)",lowest amount of C11NH with visible signal,0.03 µg
